# Results published in patent US20120040375A1 (NATIONAL UNIVERSITY CORPORATION HOKKAIDO UNIVERSITY, published 2012).
# B1: PankoMab (antibody, V domains shown)
# VH: EVQLVESGGGLVQPGGSMRLSCVASGFPFSNYWMNWVRQAPGKGLEWVGEIRLKSNNYTTHYAESVKGRFTISRDDSKNSLYLQMNSLKTEDTAVYYCTRHYYFDYWGQGTLVTVSS
# VL: DIVMTQSPLSNPVTPGEPASISCRSSKSLLHSNGITYFFWYLQKPGQSPQLLIYQMSNLASGVPDRFSGSGSGTDFTLRISRVEAEDVGVYYCAQNLELPPTFGQGTKVEIKR
# Legend:
# Biotin-Tn(DT*R)-100 = target: T1, Biotin-Tn(DT*R)-100 (N-terminal Biotin-PEG-linker; Thr(GalNAcα) in each Asp-Thr-Arg (5 sites); C-terminal amide (NH2)); assay: SPR, Biacore T100, Biotin-Tn(DT*R)-100 on sensor chip SA
# T1 construct: also called Compound No. 21; Compound 21
# T1 sequence (peptide, as listed by the source limits assumed): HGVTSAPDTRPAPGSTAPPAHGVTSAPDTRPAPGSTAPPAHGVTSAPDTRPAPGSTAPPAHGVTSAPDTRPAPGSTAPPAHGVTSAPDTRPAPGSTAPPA
# [1] = target: T2, biotin-labeled T-47D culture supernatant (MUC1) (human, UniProt P15941 24-1097, limits assumed, biotin-labeled with Sulfo-NHS-Biotin); assay: SPR, Biacore, biotin-labeled T-47D culture supernatant on sensor chip SA
# T2 construct: The whole concentrated supernatant was biotinylated and put on the chip
# T2 sequence (P15941 24-1097 limits assumed): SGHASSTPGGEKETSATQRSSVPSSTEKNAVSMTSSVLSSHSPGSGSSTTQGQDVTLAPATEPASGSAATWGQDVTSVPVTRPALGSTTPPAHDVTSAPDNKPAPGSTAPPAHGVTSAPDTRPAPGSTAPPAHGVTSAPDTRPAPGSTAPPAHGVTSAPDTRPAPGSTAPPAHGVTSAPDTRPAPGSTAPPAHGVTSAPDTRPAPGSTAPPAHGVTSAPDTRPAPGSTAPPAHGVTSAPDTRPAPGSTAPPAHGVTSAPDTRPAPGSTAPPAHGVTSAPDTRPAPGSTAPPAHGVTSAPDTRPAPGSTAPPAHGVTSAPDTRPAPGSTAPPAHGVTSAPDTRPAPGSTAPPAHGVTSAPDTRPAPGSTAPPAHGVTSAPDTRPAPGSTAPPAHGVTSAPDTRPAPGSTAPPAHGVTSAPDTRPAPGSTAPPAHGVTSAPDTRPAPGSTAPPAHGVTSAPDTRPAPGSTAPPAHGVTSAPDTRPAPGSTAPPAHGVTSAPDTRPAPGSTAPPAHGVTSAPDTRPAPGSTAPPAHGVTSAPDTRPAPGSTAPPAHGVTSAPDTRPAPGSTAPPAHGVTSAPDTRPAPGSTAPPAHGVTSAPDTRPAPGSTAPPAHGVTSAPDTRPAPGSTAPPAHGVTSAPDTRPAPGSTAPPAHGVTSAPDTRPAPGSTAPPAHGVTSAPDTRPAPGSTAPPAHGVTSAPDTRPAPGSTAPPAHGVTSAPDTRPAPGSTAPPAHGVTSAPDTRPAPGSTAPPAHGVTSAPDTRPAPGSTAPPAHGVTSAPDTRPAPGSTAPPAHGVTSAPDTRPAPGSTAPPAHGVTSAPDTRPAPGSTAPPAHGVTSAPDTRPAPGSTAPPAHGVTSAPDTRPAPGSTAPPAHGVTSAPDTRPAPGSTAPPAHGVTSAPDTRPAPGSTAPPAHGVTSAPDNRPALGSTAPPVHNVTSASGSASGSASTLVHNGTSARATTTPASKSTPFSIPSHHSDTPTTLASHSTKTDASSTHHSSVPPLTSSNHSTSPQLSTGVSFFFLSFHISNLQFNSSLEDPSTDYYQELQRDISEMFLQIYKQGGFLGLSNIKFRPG
binder,measurement,setting,value
B1,Kd,Biotin-Tn(DT*R)-100,1500 nM
same,koff,Biotin-Tn(DT*R)-100,0.19 s⁻¹
same,kon,Biotin-Tn(DT*R)-100,120000 M⁻¹ s⁻¹
same,Kd,[1],100 nM
same,koff,[1],0.045 s⁻¹
same,kon,[1],440000 M⁻¹ s⁻¹
